Key:
AncSZ = assay: phosphorylation enrichment, bacterial display (enrichment ratio); higher = better substrate or ligand; peptides without Tyr show the background
EPHB1 = EPHB1 (UniProt P54762); assay: as above
EPHB2 = EPHB2 (UniProt P29323); assay: as above
FGFR1 = FGFR1 (UniProt P11362); assay: as above
FGFR3 = FGFR3 (UniProt P22607); assay: as above
Fer (mouse) = assay: as above
Fes = Fes (UniProt P07332); assay: as above
Fyn = Fyn (UniProt P06241); assay: as above
Hck = Hck (UniProt P08631); assay: as above
Jak2 = Jak2 (UniProt O60674); assay: as above
Jak2, sequence (O60674 whole entry, looked up): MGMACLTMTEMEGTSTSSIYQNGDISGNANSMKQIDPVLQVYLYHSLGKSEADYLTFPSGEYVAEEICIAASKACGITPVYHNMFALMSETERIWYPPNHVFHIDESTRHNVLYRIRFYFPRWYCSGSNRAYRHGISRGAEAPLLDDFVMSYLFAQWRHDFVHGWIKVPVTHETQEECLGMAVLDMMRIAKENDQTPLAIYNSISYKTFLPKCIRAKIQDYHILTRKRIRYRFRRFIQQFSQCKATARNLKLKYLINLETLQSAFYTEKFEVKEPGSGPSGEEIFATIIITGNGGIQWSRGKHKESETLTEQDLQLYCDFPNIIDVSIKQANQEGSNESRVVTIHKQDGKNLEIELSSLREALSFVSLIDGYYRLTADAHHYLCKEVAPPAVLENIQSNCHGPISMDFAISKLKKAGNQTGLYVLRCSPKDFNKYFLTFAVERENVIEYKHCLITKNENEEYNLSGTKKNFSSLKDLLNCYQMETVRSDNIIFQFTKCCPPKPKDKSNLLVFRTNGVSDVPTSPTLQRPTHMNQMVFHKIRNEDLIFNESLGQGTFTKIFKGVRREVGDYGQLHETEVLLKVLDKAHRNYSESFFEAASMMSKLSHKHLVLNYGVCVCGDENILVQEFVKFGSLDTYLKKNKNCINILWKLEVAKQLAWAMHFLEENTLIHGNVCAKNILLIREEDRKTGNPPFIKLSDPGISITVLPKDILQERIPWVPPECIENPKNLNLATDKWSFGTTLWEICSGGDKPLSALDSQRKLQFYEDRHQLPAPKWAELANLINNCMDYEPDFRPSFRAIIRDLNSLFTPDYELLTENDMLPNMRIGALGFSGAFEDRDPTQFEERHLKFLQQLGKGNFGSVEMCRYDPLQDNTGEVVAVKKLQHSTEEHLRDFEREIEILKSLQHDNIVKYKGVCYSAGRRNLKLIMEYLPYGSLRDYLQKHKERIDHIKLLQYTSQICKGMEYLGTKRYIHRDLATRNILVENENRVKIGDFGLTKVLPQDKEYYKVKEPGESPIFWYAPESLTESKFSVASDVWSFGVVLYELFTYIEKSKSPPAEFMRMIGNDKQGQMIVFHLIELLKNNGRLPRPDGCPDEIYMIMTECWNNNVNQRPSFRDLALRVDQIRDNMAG

MERTK = MERTK (UniProt Q12866); assay: as above
c-Abl (mouse) = assay: as above
c-Src = assay: as above
Grb2 SH2 = Grb2 SH2 (UniProt P62993); assay: SH2 binding enrichment of the phosphorylated peptide, bacterial display (enrichment ratio); higher = better substrate or ligand; peptides without Tyr show the background
Grb2 SH2, sequence (P62993 whole entry, looked up): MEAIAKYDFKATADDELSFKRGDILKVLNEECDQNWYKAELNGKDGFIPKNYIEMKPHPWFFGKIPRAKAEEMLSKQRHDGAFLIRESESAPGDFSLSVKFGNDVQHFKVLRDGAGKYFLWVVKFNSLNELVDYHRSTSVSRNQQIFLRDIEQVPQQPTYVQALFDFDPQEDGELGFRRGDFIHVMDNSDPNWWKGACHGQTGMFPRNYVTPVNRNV

SHP2-C SH2 = assay: as above
c-Src SH2 = assay: as above
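Throughout, for SH2 binding enrichment of the phosphorylated peptide, bacterial display: peptide library displayed on the E. coli surface as eCPX fusions, selected cells deep-sequenced, score is each peptide's frequency after selection divided by its frequency in the input.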
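Throughout, for phosphorylation enrichment, bacterial display: 11-residue human phosphosite peptides and single-mutation variants displayed on the E. coli surface, counted by deep sequencing, each peptide's frequency after selection divided by its frequency in the unselected input library; frequency after pTyr selection over input frequency; kinase dosed for 20-30% of maximal phosphorylation in three min.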

Fes, sequence (P07332 whole entry, looked up): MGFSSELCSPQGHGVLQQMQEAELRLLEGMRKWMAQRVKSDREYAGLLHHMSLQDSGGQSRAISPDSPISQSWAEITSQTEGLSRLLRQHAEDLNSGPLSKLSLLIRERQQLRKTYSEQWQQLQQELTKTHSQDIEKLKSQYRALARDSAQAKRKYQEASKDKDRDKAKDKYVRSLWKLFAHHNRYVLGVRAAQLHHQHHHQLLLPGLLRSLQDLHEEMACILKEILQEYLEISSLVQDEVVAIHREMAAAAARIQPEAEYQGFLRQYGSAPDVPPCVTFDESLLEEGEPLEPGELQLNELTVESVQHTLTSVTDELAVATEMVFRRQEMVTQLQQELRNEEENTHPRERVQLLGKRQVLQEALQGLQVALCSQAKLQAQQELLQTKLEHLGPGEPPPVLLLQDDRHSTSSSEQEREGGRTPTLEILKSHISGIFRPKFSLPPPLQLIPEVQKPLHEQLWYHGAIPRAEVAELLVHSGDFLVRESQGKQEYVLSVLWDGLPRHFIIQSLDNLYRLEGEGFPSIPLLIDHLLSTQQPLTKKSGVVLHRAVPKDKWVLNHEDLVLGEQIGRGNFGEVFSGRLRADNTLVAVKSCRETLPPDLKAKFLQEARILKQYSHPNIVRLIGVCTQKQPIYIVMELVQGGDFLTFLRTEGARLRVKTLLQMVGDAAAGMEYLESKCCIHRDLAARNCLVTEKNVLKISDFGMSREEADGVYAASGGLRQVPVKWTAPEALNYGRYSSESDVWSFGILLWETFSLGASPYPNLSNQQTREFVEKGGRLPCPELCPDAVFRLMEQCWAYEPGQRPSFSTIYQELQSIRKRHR
EPHB2, sequence (P29323 whole entry, looked up): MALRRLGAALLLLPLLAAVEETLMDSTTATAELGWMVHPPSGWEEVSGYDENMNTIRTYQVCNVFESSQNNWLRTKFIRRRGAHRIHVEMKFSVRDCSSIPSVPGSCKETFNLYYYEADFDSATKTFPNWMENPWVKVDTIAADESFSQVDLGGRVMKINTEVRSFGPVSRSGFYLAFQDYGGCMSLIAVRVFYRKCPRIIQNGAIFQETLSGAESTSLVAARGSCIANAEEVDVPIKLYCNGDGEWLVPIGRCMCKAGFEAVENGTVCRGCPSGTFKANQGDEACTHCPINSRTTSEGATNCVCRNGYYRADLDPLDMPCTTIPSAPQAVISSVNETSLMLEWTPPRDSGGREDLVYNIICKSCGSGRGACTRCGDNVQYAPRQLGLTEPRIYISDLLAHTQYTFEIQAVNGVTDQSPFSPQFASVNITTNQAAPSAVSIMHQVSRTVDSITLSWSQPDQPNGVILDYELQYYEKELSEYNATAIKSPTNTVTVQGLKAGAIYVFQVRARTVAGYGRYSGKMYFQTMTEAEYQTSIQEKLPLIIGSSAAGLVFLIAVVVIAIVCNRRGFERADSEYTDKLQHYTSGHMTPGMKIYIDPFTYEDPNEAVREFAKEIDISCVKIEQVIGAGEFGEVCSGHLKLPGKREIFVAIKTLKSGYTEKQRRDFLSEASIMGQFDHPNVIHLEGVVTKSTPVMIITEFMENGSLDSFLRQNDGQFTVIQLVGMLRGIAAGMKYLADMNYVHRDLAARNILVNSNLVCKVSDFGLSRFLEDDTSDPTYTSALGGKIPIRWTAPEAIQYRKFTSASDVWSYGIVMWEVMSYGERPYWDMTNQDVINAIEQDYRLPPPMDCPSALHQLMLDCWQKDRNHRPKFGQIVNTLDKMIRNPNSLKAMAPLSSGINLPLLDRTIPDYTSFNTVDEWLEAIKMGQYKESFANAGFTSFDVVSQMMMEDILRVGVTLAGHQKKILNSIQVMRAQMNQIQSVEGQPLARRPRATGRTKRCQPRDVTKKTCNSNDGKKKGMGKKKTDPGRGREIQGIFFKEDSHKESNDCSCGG
FGFR1, sequence (P11362 whole entry, looked up): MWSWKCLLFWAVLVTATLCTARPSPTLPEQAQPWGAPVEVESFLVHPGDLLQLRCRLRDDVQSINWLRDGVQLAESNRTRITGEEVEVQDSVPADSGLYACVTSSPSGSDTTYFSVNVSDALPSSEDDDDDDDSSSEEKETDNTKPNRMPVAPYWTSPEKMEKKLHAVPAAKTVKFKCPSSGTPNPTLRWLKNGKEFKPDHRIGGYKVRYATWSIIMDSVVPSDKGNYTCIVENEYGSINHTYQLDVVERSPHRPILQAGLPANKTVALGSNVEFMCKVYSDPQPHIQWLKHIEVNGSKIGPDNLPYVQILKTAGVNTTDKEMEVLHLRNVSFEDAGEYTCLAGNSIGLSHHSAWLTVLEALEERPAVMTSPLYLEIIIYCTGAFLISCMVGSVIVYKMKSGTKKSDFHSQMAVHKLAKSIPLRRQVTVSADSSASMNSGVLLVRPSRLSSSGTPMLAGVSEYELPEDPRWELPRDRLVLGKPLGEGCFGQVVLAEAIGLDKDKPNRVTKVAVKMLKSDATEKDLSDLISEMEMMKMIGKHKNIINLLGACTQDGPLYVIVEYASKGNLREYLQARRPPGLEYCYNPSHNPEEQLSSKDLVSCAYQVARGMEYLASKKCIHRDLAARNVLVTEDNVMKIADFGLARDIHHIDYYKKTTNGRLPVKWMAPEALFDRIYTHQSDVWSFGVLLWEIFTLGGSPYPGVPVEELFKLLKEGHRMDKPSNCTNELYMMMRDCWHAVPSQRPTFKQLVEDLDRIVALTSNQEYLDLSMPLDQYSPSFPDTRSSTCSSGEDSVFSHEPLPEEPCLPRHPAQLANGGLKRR
FGFR3, sequence (P22607 whole entry, looked up): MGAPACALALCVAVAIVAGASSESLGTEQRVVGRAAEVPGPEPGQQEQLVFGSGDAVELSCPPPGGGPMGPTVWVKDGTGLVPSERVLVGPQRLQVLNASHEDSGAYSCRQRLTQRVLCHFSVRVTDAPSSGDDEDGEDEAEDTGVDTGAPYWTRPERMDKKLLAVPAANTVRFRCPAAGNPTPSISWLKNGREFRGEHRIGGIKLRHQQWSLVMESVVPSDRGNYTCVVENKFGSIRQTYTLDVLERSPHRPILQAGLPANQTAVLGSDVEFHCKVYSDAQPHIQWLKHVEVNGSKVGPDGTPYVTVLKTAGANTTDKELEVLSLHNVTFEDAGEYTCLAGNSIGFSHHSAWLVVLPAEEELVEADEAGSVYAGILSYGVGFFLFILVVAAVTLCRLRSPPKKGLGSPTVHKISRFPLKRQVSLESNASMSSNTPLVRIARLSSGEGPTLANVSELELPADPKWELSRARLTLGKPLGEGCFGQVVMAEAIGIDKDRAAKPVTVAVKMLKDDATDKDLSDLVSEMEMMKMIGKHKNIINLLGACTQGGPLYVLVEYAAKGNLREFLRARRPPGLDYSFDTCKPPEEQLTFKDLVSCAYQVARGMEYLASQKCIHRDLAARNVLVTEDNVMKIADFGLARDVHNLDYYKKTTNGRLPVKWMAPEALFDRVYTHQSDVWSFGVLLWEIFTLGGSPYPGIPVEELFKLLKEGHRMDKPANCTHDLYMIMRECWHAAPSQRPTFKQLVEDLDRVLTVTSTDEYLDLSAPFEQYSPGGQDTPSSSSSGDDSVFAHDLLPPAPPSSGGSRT

Sequence	phosphorylation enrichment (AncSZ)	phosphorylation enrichment (EPHB1)	phosphorylation enrichment (EPHB2)	phosphorylation enrichment (FGFR1)	phosphorylation enrichment (FGFR3)	phosphorylation enrichment (Fer (mouse))	phosphorylation enrichment (Fes)	phosphorylation enrichment (Fyn)	phosphorylation enrichment (Hck)	phosphorylation enrichment (Jak2)	phosphorylation enrichment (MERTK)	phosphorylation enrichment (c-Abl (mouse))	phosphorylation enrichment (c-Src)	SH2 binding enrichment (Grb2 SH2)	SH2 binding enrichment (SHP2-C SH2)	SH2 binding enrichment (c-Src SH2)
NIEPIYLNMLL [ATR_Y317_V316I]	1.85	13.8	14.5	10.7	7.79	13.3	3.2	8.37	6.92	1.42	6.85	15.1	6.6	0.705	0.63	0.424
NIFSFYLSRDP [CTSD_Y232]	0.85	0.551	0.506	0.348	0.697	0.528	1.14	0.4	0.461	0.951	0.333	0.619	0.409	1.52	1.64	1.09
NKFTTYLPRLP [C9orf24_Y126_YF]	0.568	0.437	0.445	0.47	0.503	0.36	0.784	0.477	0.507	0.666	0.42	0.482	0.425	0.927	1.02	0.824
NLNGKYNKPRA [ANGPTL3_Y417]	0.51	0.294	0.353	0.344	0.525	0.372	0.613	0.659	0.362	0.8	0.471	0.696	0.334	1.3	0.875	1.18
NPQKSYLIRLF [WAS_Y83_F84L_YF]	0.768	0.462	0.484	0.439	0.696	0.448	0.957	0.398	0.407	0.681	0.413	0.523	0.38	1.03	0.822	0.672
NRLTDYFELLL [BBS10_Y536_P539L_YF]	1.36	0.654	0.633	7.17	5	0.534	1.31	0.622	0.509	1.35	0.442	0.765	0.619	1.33	1.29	0.834
NSIGNYYKPWF [DHCR24_Y299]	1.14	14.5	15.2	5.3	4.33	0.52	0.774	0.568	1	9.63	8.27	14.1	0.69	1.14	2.39	1.09
NSNSDYVDVLP [SH2D1B_Y127]	2.46	4.08	2.82	3.73	2.95	0.884	1.33	0.628	0.735	1.11	0.54	0.743	0.598	0.835	0.43	0.485
NVADHYRVFKP [ATP6V0D2_Y271_G272R_YF]	0.708	0.404	0.361	0.459	0.608	0.404	0.616	0.391	0.418	0.582	0.644	0.686	0.471	0.842	0.624	0.397
NVKGIYAVGDV [GSR_Y371]	0.714	0.619	0.564	0.521	0.574	0.572	0.865	4.37	3.55	0.66	1.31	1.44	3.73	0.741	0.738	0.533
PADQAYSWFQH [NDST1_Y711_R709Q_YF]	1.7	1.3	0.926	5.17	4.33	26.6	2.91	1.38	1.36	0.855	7.11	0.58	2.41	0.648	1.01	0.891
PADRAYSWFQH [NDST1_Y711_YF]	1.14	0.543	0.67	1.84	1.14	17.8	1.43	0.833	0.466	1.03	4.22	0.645	0.868	0.949	0.572	0.976
PANMVYSTVEI [SLAMF7_Y304_T302M]	1.38	3.27	3.32	2.6	2.26	20.3	1.77	10.6	9.3	0.659	8.74	6.82	8.24	0.699	0.546	0.833
PATYTYDEYKK [COL8A2_Y648]	1.43	0.745	0.883	0.749	0.728	0.558	1.3	1.67	1.55	0.868	1.02	1.38	3.07	0.551	0.799	1.48
PDGVEYLKNNP [GRIN3A_Y831_D835N]	1.21	0.527	0.452	0.503	0.769	0.499	1.05	0.543	0.664	1.31	0.546	0.748	0.539	0.982	0.849	0.348
PESIMYWKFTT [NTRK3_Y744_R745W]	2.52	0.92	1.22	1.09	1.55	1.53	2.81	1.85	1.96	2.76	0.851	2.36	3.1	0.767	1.21	0.487
PEVRRCVLPLN [RPE65_Y368_Y368C]	0.906	0.673	0.487	0.495	0.774	0.644	1.14	0.366	0.48	0.927	0.458	0.871	0.586	0.926	0.633	0.548
